A word on the Kd: it is the concentration at which binding is half-saturated. Read a high Kd as lower affinity.

The text below walks through data of PMC10352136 (Nature Structural & Molecular Biology, 2023).

Sequences and labels used below:
B5: SNX5^FL (full-length sorting nexin 5) (natural protein, human, UniProt Q9Y5X3 1-404, looked up)
chain: MAAVPELLQQQEEDRSKLRSVSVDLNVDPSLQIDIPDALSERDKVKFTVHTKTTLPTFQSPEFSVTRQHEDFVWLHDTLIETTDYAGLIIPPAPTKPDFDGPREKMQKLGEGEGSMTKEEFAKMKQELEAEYLAVFKKTVSSHEVFLQRLSSHPVLSKDRNFHVFLEYDQDLSVRRKNTKEMFGGFFKSVVKSADEVLFTGVKEVDDFFEQEKNFLINYYNRIKDSCVKADKMTRSHKNVADDYIHTAACLHSLALEEPTVIKKYLLKVAELFEKLRKVEGRVSSDEDLKLTELLRYYMLNIEAAKDLLYRRTKALIDYENSNKALDKARLKSKDVKLAEAHQQECCQKFEQLSESAKEELINFKRKRVAAFRKNLIEMSELEIKHARNNVSLLQSCIDLFKNN
notes: sorting nexin 5 (SNX5), human, full length; Monomer by SEC-MALS; also called SNX5^WT; source: E. coli BL21 (DE3), purified (glutathione Sepharose, TEV cleavage, SEC); not shown: GST, N-terminal, cleaved

Common to all, as to conditions: both partners purified
The target in assay [1] is T1, SNX5^PX (PX domain of SNX5) (human, UniProt Q9Y5X3 25-172).
T1 construct: PX domain of sorting nexin 5 (SNX5), human; also called SNX5^PX domain; isolated PX domain; source: E. coli BL21 (DE3), purified (Ni-NTA, TEV cleavage, ion exchange, SEC); not shown: His6-MBP, N-terminal, cleaved
T1 sequence (looked up): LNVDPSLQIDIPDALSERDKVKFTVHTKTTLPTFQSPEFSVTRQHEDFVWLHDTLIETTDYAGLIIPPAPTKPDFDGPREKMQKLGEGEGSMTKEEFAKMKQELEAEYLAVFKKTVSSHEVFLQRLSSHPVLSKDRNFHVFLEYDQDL
Description: ITC; 25 °C, 300 mM NaCl, 0.5 mM TCEP, 25 mM HEPES pH 7.5; 445 µM CI-MPR_(2347–2375) peptide titrated into a mix of 100 µM SNX1^BAR and 20 µM SNX5^PX; one-site model. A general note: In ITC the heat of successive injections is recorded.

For assay [2], the target named is T2, ESCPE-1 (SNX1^FL–SNX5^FL heterodimer) (human, UniProt Q13596 1-522; Q9Y5X3 1-404).
T2 construct: sorting nexin 1 (SNX1), human, full length; sorting nexin 5 (SNX5), human, full length; Single heterodimer by SEC-MALS; The GST tag is called cleavable; also called SNX1–SNX5; SNX1^WT-SNX5^WT; source: E. coli BL21 (DE3), pellets mixed and lysed together, purified (glutathione Sepharose, Ni-NTA, SENP2, ion exchange, SEC); not shown: His6-SUMO3, N-terminal, cleaved; copies: 1 + 1
T2 sequence (Q13596 whole entry, one chain of several): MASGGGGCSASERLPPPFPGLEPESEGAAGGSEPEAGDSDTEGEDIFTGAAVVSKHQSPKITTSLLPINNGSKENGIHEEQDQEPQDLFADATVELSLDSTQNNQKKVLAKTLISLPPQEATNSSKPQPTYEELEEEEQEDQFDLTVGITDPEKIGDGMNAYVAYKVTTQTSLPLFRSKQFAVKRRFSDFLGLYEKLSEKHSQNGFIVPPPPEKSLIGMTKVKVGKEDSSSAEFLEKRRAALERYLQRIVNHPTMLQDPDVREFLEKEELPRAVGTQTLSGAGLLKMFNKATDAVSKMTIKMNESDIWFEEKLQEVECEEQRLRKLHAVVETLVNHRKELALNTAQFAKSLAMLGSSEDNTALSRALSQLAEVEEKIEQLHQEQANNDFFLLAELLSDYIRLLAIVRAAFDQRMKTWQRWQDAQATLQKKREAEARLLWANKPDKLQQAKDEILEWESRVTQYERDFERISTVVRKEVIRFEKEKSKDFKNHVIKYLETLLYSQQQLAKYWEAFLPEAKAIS
Kind of assay: ITC; 25 °C, 300 mM NaCl, 0.5 mM TCEP, 25 mM HEPES pH 7.5; CI-MPR in the syringe (SNX1^PX in the syringe for its test with the peptide); one-site model.

The target in assay [3] is T3, SNX1^BAR–SNX5^FL heterodimer (human, UniProt Q13596 301-522; Q9Y5X3 1-404).
T3 construct: BAR domain of SNX1, human; sorting nexin 5 (SNX5), human, full length; also called SNX1^BAR–SNX5 partial heterodimer; source: E. coli BL21 (DE3), purified as for SNX1^FL–SNX5^FL; not shown: His6-SUMO3, N-terminal, cleaved; copies: 1 + 1
T3 sequence (Q13596 301-522, chain 1 of 2, one chain of several): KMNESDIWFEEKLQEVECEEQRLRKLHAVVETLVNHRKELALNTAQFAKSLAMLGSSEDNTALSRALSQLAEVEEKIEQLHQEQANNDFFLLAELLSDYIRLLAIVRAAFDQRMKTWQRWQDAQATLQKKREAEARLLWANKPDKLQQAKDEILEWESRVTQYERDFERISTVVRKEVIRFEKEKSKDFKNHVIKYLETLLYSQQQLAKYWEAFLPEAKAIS
The description is as above.

In assay [4] the target is T1, SNX5^PX (PX domain of SNX5). The description is as above.
For assay [5], the target named is B5. The description is as above.
The target of assay [6] is T2, ESCPE-1 (SNX1^FL–SNX5^FL heterodimer). Kind of assay: liposome flotation; CI-MPR_(2330–2491) cross-linked by its N-terminal cysteine to DSPE-Mal (1–6%) on liposomes without phosphoinositides; SNXs incubated 1 h at 4 °C in buffer G; sucrose gradient, floated fraction on SDS-PAGE.
The target in assay [7] is B5. Described as above.
Assay [8] has as its target T4, His-SUMO-SNX1 (human, UniProt Q13596 1-522).
T4 construct: sorting nexin 1 (SNX1), human, full length; Bait of the Ni-NTA pull-down; also called wild-type (WT) SNX1; source: E. coli BL21 (DE3), purified (tag-removal step omitted); not shown: His6-SUMO3, N-terminal, kept
Kind of assay: pull-down; 5 µM His-SUMO-SNX1 or mutant held on Ni-NTA beads, 10 µM SNX5 or mutant; 1 h at 4 °C in 150 mM NaCl, 10 mM imidazole, 0.5 mM TCEP, 10 mM HEPES pH 7.5; Coomassie-stained SDS-PAGE.

Assay [9] deals with T5, His-SUMO-SNX1 (2× mut)^† (human, UniProt Q13596 1-522, F347A | W511A).
T5 construct: sorting nexin 1 (SNX1), human, full length, double mutant; Bait of the Ni-NTA pull-down; source: E. coli BL21 (DE3), purified (tag-removal step omitted); not shown: His6-SUMO3, N-terminal, kept
T5 sequence (Q13596 whole entry F347A/W511A): as the sequence (Q13596 whole entry, one chain of several) above, with F347A, W511A counted along it
The description is as above.

Assay [10] has as its target T6, SNX1^FL (full-length sorting nexin 1) (human, UniProt Q13596 1-522).
T6 construct: sorting nexin 1 (SNX1), human, full length; Homodimer by SEC-MALS; also called SNX1 WT; source: E. coli BL21 (DE3), purified (Ni-NTA, SENP2 tag cleavage, ion exchange, SEC); not shown: His6-SUMO3, N-terminal, cleaved
Kind of assay: SEC-MALS; 100 μl of protein at 1 mg ml^−1 in 150 mM NaCl, 0.5 mM TCEP, 10 mM HEPES pH 7.5; Superdex 200 Increase 10/300 GL. In general terms: In gel filtration, larger molecules generally elute earlier.

T4 sequence (Q13596 whole entry): as the sequence (Q13596 whole entry, one chain of several) above
T6 sequence (Q13596 whole entry): as the sequence (Q13596 whole entry, one chain of several) above

B1: CI-MPR_(2347–2375) peptide (bipartite sorting motif of the cation-independent mannose-6-phosphate receptor tail) (peptide, UniProt P11717 2347-2375, looked up)
peptide: SNVSYKYSKVNKEEETDENETEWLMEEIQ
notes: Called a peptide in the ITC methods; also called shorter CI-MPR tail segment
Turning to B1, in [1], the “KD into a mixture of SNX5^PX and SNX1^BAR” value was roughly 3200 nM. For the same molecule, the Kd in [2] was 1500 nM; in assay [3], roughly 1900 nM; in [4], roughly 8000 nM.

B2: SUMO-CI-MPR_(2330–2491) (entire cytosolic tail domain of CI-MPR) (domain or fragment, UniProt P11717 2330-2491, looked up)
chain: ERRETVISKLTTCCRRSSNVSYKYSKVNKEEETDENETEWLMEEIQLPPPRQGKEGQENGHITTKSVKALSSLHGDDQDSEDEVLTIPEVKVHSGRGAGAESSHPVRNAQSNALQEREDDRVGLVRGEKARKGKSSSAQQKTVSSTKLVSFHDDSDEDLLHI
notes: cation-independent mannose-6-phosphate receptor (CI-MPR), cytosolic tail, residues 2330-2491; also called CI-MPR tail domain; cytoplasmic domain of the CI-MPR; source: E. coli Rosetta (DE3), purified; not shown: His6-SUMO3, N-terminal, kept
On to B2, for which the equilibrium dissociation constant (Kd) in assay [2] was 2600 nM; in [5], roughly 8800 nM.

B3: CI-MPR_(2330–2491) cytosolic tail with an N-terminal cysteine, cross-linked to liposomes (domain or fragment, UniProt P11717 2330-2491, looked up)
chain: ERRETVISKLTTCCRRSSNVSYKYSKVNKEEETDENETEWLMEEIQLPPPRQGKEGQENGHITTKSVKALSSLHGDDQDSEDEVLTIPEVKVHSGRGAGAESSHPVRNAQSNALQEREDDRVGLVRGEKARKGKSSSAQQKTVSSTKLVSFHDDSDEDLLHI
modifications: N-terminal cysteine cross-linked to maleimide-functionalized lipid (DSPE-Mal) on liposomes
notes: cation-independent mannose-6-phosphate receptor (CI-MPR), cytosolic tail, residues 2330-2491; also called CI-MPR tail; source: E. coli Rosetta (DE3), purified, conjugated to DSPE-Mal liposomes; not shown: Cys (added for chemical cross-linking), N-terminal, kept
Take B3: the binding result in [6] and in [7] was “binds” in each case.

B4: SNX5 (4 mut)^‡ (Y219A, M233A, V240A, R368A) (natural protein, human, UniProt Q9Y5X3 1-404, looked up)
chain: MAAVPELLQQQEEDRSKLRSVSVDLNVDPSLQIDIPDALSERDKVKFTVHTKTTLPTFQSPEFSVTRQHEDFVWLHDTLIETTDYAGLIIPPAPTKPDFDGPREKMQKLGEGEGSMTKEEFAKMKQELEAEYLAVFKKTVSSHEVFLQRLSSHPVLSKDRNFHVFLEYDQDLSVRRKNTKEMFGGFFKSVVKSADEVLFTGVKEVDDFFEQEKNFLINAYNRIKDSCVKADKATRSHKNAADDYIHTAACLHSLALEEPTVIKKYLLKVAELFEKLRKVEGRVSSDEDLKLTELLRYYMLNIEAAKDLLYRRTKALIDYENSNKALDKARLKSKDVKLAEAHQQECCQKFEQLSESAKEELINFKRKAVAAFRKNLIEMSELEIKHARNNVSLLQSCIDLFKNN
notes: sorting nexin 5 (SNX5), human, four point mutations; source: E. coli BL21 (DE3), purified (glutathione Sepharose, TEV cleavage, SEC); not shown: GST, N-terminal, cleaved
B4: the binding result in assay [8] and in [9] was “binds” each time.

As to B5, the binding result in assay [8], in assay [9] and in [10] was “binds” each time.

B6: SNX5 (6 mut)^§ (Y219A, M233A, V240A, R368A, I398A, F401A) (natural protein, human, UniProt Q9Y5X3 1-404, looked up)
chain: MAAVPELLQQQEEDRSKLRSVSVDLNVDPSLQIDIPDALSERDKVKFTVHTKTTLPTFQSPEFSVTRQHEDFVWLHDTLIETTDYAGLIIPPAPTKPDFDGPREKMQKLGEGEGSMTKEEFAKMKQELEAEYLAVFKKTVSSHEVFLQRLSSHPVLSKDRNFHVFLEYDQDLSVRRKNTKEMFGGFFKSVVKSADEVLFTGVKEVDDFFEQEKNFLINAYNRIKDSCVKADKATRSHKNAADDYIHTAACLHSLALEEPTVIKKYLLKVAELFEKLRKVEGRVSSDEDLKLTELLRYYMLNIEAAKDLLYRRTKALIDYENSNKALDKARLKSKDVKLAEAHQQECCQKFEQLSESAKEELINFKRKAVAAFRKNLIEMSELEIKHARNNVSLLQSCADLAKNN
notes: sorting nexin 5 (SNX5), human, six point mutations; source: E. coli BL21 (DE3), purified (glutathione Sepharose, TEV cleavage, SEC); not shown: GST, N-terminal, cleaved
For the molecule B6, the binding result in [8] is recorded as “binds”.
